Results reported in publication PMC5372246, “Co-production of hydrogen and ethanol from glucose in Escherichia coli by activation of pentose-phosphate pathway through deletion of phosphoglucose isomerase (pgi) and overexpression of glucose-6-phosphate dehydrogenase (zwf) and 6-phosphogluconate dehydrogenase (gnd)” (Biotechnology for Biofuels, 2017).

Substrate: NC(=O)c1ccc[n+]([C@@H]2O[C@H](COP(=O)(O)OP(=O)(O)OC[C@H]3O[C@@H](n4cnc5c(N)ncnc54)[C@H](OP(=O)(O)O)[C@@H]3O)[C@@H](O)[C@H]2O)c1
Experiment: purified protein
Assay type: biochemical, Escherichia coli
Settings: co-substrate 6-phosphogluconate, general assay: Tris-HCl pH 7.5, 1 mM MgCl2, 30 °C

B1: Gnd (GE), 6-phosphogluconate dehydrogenase (Escherichia coli K-12) (protein)
chain: MSKQQIGVVGMAVMGRNLALNIESRGYTVSIFNRSREKTEEVIAENPGKKLVPYYTVKEFVESLETPRRILLMVKAGAGTDAAIDSLKPYLDKGDIIIDGGNTFFQDTIRRNRELSAEGFNFIGTGVSGGEEGALKGPSIMPGGQKEAYELVAPILTKIAAVAEDGEPCVTYIGADGAGHYVKMVHNGIEYGDMQLIAEAYSLLKGGLNLTNEELAQTFTEWNNGELSSYLIDITKDIFTKKDEDGNYLVDVILDEAANKGTGKWTSQSALDLGEPLSLITESVFARYISSLKDQRVAASKVLSGPQAQPAGDKAEFIEKVRRALYLGKIVSYAQGFSQLRAASEEYNWDLNYGEIAKIFRAGCIIRAQFLQKITDAYAENPQIANLLLAPYFKQIADDYQQALRDVVAYAVQNGIPVPTFSAAVAYYDSYRAAVLPANLIQAQRDYFGAHTYKRIDKEGVFHTEWLD
notes: full-length, C-terminal His-tag, Ni-NTA purified from E. coli, 51 kDa on SDS-PAGE
B1 was tested, and the Km was 40 µM.
